For the test, the target named is Mycobacterium tuberculosis Bacterioferritin B (BfrB), full length (Mycobacterium tuberculosis H37Rv) (UniProt P9WNE5). Briefly: crystal structure; recombinant BfrB, 11 mg/ml, 20% PEG 3350, 0.1 M Tris pH 8.5, 293 K; 3.0 Å; 24 subunits in the asymmetric unit.

In general, stoichiometry N refers to the number of molecules, sites or subunits per partner or assembly.

Consider “Mycobacterium tuberculosis Bacterioferritin B (BfrB), full length (from UniProt P9WNE5 1-181) (natural protein)”, for which the stoichiometry N was 24.

The record behind these values is paper PMC3072985.
